According to patent US7541450B2, “Ligand-dependent protein splicing” (President and Fellows of Harvard College, priority 2004, dated 2009):
Entries after “also recorded” stand apart in the source; their conditions may differ.

Tested on: aminoglycoside phosphorylase (KanR)
Type: cell-based, S. cerevisiae

B1: intein(N)-ER-intein(C): starting RecA intein with the estrogen receptor ligand binding domain in place of the endonuclease domain, SEQ ID NO: 1 (protein)
chain: CLAEGTRIFDPVTGTTHRIEDVVDGRKPIHVVAAAKDGTLHARPVVSWFDQGTRDVIGLRIAGGAIVWATPDHKVLTEYGWRAAGELRKGDRVAGPGGSGNSLALSLTADQMVSALLDAEPPILYSEYDPTRPFSEASMMGLLTNLADRELVHMINWAKRVPGFVDLTLHDQVHLLECAWLEILMIGLVWRSMEHPGKLLFAPNLLLDRNQGKCVEGMVEIFDMLLATSSRFRMMNLQGEEFVCLKSIILLNSGVYTFLSSTLKSLEEKDHIHRVLDKITDTLIHLMAKAGLTLQQQHQRLAQLLLILSHIRHMSNKRMEHLYSMKCKNVVPLYDLLLEMLDAHRLHAGGSGASRVQAFADALDDKFLHDMLAEELRYSVIREVLPTRRARTFDLEVEELHTLVAEGVVVHN
modifications: M. tuberculosis RecA intein with the estrogen ligand binding domain inserted in place of the RecA endonuclease domain with six amino acid linkers in between.
**Q.** How did the “geneticin resistance (growth) in the KanR context” value turn out when B1 was run?
**A.** confers no geneticin resistance in the presence or absence of 4-HT; also recorded: unable to grown; also recorded: fails to confer geneticin resistance
